According to doi:10.1101/726224 (bioRxiv, 2019):

Target: Cyclin B1^165-433 (isolated) (UniProt P14635 165-433)
Experiment: SEC

Sequence of Cyclin B1^165-433 (isolated) (P14635 165-433): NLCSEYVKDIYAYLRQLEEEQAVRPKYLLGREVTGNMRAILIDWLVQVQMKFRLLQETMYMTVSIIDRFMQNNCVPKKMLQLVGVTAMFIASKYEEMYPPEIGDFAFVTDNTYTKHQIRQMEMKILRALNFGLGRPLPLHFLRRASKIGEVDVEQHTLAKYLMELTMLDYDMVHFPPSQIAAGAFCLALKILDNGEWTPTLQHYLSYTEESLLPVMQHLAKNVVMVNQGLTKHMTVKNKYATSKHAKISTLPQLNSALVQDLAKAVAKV

B1: MBP-MAD1^41-62 (domain or fragment)
chain: LQMQYQQSMQLEERAEQIRSKS
binding result: binds
